Test results as given in patent US10562947B2, “Compositions and methods for preventing or treating diseases, conditions or processes characterized by aberrant fibroblast proliferation and extracellular matrix deposition” (MOERAE MATRIX, INC., priority 2011, dated 2020).

How the values were obtained:
Test in all cases: Kinase Profiling Assay
Assay type in all cases: biochemical
Settings in all cases: 100 μM peptide
CHK1(h) = target: T1, CHK1(h) (Homo sapiens, UniProt O14757)
T1 sequence (O14757 1-476): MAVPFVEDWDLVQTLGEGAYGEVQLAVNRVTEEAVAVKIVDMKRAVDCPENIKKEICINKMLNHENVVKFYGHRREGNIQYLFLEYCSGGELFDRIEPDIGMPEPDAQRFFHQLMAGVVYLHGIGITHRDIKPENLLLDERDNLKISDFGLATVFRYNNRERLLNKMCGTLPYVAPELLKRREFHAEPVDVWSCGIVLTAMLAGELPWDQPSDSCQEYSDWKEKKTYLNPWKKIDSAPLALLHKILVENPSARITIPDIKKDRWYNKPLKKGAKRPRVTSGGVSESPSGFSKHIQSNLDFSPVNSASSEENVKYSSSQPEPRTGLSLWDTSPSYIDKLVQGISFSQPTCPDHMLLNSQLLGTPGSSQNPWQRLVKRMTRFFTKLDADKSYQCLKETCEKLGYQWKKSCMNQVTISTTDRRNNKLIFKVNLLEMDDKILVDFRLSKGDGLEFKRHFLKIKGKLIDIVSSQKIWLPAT
Procedure, shortened: (§1)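 MK2 inhibitory peptides were screened for specificity across a commercial panel of 266 human kinases, and each kinase activity measurement was run in duplicate.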

NEK11(h) = target: T2, NEK11(h) (Homo sapiens, UniProt Q8NG66)
T2 sequence (Q8NG66 1-645): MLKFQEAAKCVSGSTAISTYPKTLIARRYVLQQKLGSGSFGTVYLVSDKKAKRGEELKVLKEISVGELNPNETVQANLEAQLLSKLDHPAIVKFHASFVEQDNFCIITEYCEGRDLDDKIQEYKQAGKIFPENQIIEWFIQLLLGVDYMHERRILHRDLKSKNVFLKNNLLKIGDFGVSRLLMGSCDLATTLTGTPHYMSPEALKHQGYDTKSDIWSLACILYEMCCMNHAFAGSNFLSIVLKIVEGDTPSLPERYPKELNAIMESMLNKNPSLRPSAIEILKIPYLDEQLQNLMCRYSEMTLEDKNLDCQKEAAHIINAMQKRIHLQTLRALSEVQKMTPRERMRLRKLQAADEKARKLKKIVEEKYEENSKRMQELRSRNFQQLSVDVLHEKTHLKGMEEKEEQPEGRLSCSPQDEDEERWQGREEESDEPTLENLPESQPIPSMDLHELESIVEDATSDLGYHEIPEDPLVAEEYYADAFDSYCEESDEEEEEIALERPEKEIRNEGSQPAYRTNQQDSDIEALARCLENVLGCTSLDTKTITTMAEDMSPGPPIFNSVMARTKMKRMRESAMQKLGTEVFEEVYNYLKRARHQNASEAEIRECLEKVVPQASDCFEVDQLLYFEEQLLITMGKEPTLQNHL
Procedure, shortened: as §1

PKBα(h) = PKBα(h) (Homo sapiens, UniProt P31749)
Procedure, shortened: as §1

STK33(h) = STK33(h) (Homo sapiens, UniProt Q9BYT3)
Procedure, shortened: as §1

TAO3(h) = target: T3, TAO3(h) (Homo sapiens, UniProt Q9H2K8)
T3 sequence (Q9H2K8 1-898): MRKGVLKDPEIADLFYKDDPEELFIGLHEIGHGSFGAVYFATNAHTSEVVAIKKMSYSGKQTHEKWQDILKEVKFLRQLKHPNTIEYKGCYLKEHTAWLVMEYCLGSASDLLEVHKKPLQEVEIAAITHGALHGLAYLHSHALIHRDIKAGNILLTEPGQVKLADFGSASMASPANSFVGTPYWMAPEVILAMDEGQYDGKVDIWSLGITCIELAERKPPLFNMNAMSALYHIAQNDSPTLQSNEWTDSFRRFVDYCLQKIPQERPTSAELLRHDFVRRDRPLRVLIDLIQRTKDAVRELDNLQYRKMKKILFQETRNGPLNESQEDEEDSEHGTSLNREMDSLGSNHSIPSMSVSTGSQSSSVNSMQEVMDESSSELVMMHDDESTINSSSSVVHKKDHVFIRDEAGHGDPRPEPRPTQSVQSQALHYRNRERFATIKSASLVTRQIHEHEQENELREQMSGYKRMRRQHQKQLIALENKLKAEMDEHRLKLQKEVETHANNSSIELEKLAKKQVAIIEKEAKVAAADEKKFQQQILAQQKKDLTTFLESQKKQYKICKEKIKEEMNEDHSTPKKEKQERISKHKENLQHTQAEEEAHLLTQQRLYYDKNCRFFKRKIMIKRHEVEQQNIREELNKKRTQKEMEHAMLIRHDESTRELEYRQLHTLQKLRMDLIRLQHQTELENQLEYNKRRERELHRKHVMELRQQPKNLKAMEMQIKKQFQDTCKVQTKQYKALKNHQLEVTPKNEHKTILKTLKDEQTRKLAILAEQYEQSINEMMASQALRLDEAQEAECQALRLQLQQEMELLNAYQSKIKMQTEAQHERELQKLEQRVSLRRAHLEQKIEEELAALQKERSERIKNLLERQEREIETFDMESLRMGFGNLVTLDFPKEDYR
Procedure, shortened: as §1

WNK2(h) = WNK2(h) (Homo sapiens, UniProt Q9Y3S1)
Procedure, shortened: as §1

Sequence of PKBα(h) (P31749 whole entry): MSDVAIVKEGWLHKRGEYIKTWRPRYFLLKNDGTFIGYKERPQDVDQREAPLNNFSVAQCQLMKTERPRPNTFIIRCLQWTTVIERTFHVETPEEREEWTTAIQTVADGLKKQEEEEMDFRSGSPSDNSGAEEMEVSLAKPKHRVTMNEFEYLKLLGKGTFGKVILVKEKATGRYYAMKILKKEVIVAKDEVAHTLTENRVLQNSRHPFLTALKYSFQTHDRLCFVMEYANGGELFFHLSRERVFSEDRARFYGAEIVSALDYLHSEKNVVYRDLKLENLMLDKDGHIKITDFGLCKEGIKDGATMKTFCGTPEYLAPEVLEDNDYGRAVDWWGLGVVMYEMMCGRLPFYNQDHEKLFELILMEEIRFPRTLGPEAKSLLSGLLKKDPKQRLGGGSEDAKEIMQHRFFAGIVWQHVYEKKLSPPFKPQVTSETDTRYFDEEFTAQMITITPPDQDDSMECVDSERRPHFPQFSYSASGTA
Sequence of STK33(h) (Q9BYT3 whole entry): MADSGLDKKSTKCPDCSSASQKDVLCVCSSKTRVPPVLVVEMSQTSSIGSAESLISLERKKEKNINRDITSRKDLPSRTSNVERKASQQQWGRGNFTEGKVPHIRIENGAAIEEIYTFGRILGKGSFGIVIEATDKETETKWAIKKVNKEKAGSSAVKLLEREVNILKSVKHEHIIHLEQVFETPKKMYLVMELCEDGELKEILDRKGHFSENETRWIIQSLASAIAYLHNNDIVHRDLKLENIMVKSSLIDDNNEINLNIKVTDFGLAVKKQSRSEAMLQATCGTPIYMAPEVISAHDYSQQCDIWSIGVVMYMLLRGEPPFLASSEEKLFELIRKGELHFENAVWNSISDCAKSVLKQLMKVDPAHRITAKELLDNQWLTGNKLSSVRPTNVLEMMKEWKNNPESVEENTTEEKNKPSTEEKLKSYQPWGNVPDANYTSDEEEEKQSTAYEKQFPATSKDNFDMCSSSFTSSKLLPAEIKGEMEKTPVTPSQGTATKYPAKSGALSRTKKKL
Sequence of WNK2(h) (Q9Y3S1 whole entry): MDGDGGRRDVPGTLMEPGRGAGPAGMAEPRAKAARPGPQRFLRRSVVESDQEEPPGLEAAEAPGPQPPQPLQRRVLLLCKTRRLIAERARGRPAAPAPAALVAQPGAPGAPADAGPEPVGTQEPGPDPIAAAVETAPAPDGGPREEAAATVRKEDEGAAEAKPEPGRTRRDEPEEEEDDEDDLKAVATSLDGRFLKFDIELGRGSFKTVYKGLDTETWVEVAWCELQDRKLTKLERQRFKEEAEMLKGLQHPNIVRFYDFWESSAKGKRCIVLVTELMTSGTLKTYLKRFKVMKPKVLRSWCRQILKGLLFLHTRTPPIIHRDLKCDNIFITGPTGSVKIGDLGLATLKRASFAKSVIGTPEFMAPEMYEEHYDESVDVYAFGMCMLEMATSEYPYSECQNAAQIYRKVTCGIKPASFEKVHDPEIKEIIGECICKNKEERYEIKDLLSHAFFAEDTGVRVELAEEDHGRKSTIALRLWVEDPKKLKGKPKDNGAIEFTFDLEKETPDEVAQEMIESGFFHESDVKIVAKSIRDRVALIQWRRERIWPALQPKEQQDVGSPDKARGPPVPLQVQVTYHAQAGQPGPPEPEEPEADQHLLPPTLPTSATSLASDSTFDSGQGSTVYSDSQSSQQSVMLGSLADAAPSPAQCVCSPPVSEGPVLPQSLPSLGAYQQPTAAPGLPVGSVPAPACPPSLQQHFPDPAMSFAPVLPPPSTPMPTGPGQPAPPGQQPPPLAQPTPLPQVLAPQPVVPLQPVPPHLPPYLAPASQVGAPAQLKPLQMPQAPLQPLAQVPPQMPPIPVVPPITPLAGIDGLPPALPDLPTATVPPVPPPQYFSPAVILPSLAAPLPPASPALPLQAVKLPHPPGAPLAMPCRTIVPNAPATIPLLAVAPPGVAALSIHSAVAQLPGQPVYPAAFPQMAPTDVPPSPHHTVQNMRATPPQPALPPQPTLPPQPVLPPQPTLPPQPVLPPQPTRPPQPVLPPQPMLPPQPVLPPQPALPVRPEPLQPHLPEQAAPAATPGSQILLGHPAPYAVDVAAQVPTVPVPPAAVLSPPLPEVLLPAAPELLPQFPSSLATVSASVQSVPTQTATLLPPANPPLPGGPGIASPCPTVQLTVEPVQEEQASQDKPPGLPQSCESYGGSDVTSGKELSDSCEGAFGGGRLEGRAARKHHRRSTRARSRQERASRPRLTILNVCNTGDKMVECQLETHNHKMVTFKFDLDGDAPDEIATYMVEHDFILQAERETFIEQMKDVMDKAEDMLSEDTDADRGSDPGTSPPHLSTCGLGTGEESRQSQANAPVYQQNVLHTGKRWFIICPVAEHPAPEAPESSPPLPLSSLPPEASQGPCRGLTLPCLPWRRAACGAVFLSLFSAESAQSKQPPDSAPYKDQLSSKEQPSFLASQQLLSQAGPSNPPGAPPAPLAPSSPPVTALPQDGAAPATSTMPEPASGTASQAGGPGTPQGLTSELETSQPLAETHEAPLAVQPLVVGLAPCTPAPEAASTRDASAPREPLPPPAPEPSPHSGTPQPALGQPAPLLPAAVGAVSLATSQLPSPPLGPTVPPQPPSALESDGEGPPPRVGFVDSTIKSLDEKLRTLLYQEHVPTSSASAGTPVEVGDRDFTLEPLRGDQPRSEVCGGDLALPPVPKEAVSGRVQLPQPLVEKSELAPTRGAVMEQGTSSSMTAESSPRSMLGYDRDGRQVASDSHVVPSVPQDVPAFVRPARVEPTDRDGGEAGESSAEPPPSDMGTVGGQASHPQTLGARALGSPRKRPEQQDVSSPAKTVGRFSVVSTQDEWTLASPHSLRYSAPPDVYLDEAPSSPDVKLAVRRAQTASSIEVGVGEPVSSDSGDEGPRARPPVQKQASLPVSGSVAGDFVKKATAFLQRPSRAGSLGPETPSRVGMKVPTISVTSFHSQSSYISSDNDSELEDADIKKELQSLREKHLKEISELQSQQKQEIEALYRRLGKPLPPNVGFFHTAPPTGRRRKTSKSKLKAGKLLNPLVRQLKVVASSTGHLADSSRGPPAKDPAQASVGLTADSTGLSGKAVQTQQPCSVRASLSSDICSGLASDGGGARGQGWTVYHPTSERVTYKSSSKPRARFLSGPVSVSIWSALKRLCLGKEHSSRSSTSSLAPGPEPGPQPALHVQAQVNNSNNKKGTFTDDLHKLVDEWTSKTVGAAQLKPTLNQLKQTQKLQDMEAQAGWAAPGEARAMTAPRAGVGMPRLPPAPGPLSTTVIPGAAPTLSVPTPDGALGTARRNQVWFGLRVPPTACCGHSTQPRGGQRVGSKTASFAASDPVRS

Sequence	CHK1(h) % activity (CHK1(h))	NEK11(h) % activity (NEK11(h))	PKBα(h) % activity (PKBα(h))	STK33(h) % activity (STK33(h))	TAO3(h) % activity (TAO3(h))	WNK2(h) % activity (WNK2(h))
HRRIKAWLKKIKALARQLGVAA (Mammalian) [MMI-0500]	65%	2%	30%	16%	12%	8%
KAFAKLAARLYRKALARQLGVAA [MMI-0400]	87%	33%	67%	52%	67%	54%
FAKLAARLYRKALARQLGVAA [MMI-0300]	91%	53%	57%	45%	77%	64%
YARAAARQARAKALNRQLGVA (Mammalian) [MMI-0200]		95%	110%	98%		94%
